Assays:
[1] = target: T1, pY1068 peptide (SEQ ID NO: 7) (Homo sapiens, UniProt P00533); assay: 96-well screen for phosphopeptide binding proteins, 7-spot IPR plates; conditions: two steps of normalization; top 9 clones
T1 construct: phosphotyrosine at Tyr1068 (chemical modification); purchased New England Peptide, Fitchburg Mass; host or cells: chemical synthesis
Procedure: A screen was conducted using 7-spot IPR plates. The 7 spot NPT IPR plates are described in more detail in copending Provisional Application No. 60/301,932 (entitled “Assay Plates, Reader Systems and Methods for Luminescence Test Measurements”, filed on Jun. 29, 2001, hereby incorporated by reference) and particularly in the description of Plate Type D in Example 6.1 (NPT IPR plate) and U.S. application Ser. Nos. 10/185,274 and 10/185,363, filed Jun. 28, 2002, each hereby incorporated by reference. These plates consist of a 96 wells with 7 zones (spots) for the immobilization of proteins or other reagents. Each spot was coated with BSA conjugated to either a single phosphopeptide or multiple phosphopeptides.
The plates were prepared essentially as described in example 12. The seven spots supported, respectively, the following BSA conjugates IkB, pY992, pY1068, pY1148, Myc, “A”, and “6-P”. “A” refers to a conjugate of BSA with multiple peptides: IkB, pY1148, Myc which were then coupled to BSA. “6-P” refers to a conjugate of BSA with the following multiple peptides: IkB, pY1148, pY992, pY1068, Smad3C.
For the assay, 4 ul from TnT reaction product described above were added to the coated plate containing 50 μl of binding buffer supplemented with 50 ng/well Ru-Streptavidin. The binding reaction was allowed to proceed at room temperature for 1 hour with constant shaking. […] The ECL signals were measured using an imaging plate reader (IPR). The raw data from the IPR reader was then normalized using two steps of normalization. The first round was based on the 50 lowest values for a given specific spot.

pEY = assay: In vitro kinase library screen: activity towards pEY; format: biochemical; conditions: 5 ul of expressed protein
Summary of the method: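 Kinases made by in vitro transcription/translation, immobilised on streptavidin/avidin plates and washed with Tris/Triton and high-salt buffers. Incubated overnight at room temperature with 5 nM pEY, 100 µM ATP, Mg2+/Mn2+ and vanadate at pH 7.4. Phospho-pEY captured with biotinylated PY20 and detected by Sulfo-TAG anti-phosphotyrosine ECL.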

[2] = tested on: autophosphorylation (phosphotyrosine); assay: In vitro kinase library screen: autophosphorylation; format: biochemical
Summary of the method: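 Biotinylated SYK and EphA7 from in vitro transcription/translation, immobilized on streptavidin/avidin plates; autophosphorylation overnight at room temperature with 5 mM MgCl2, 5 mM MnCl2, 100 μM ATP, pH 7.4. Phosphotyrosine detected by Sulfo-TAG anti-phosphotyrosine (45 min) and ECL read-out.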

phospho-pEY = assay: Protein tyrosine phosphatase activity assay with phospho-pEY substrate; format: biochemical; conditions: 5 nM phospho-pEY, 45 min
Procedure: Several proteins were produced in an in vitro transcription and translation reaction using 1–150 ng of plasmid DNA including: Mock Luciferase (Promega); protein tyrosine phosphatase; non-receptor type 2 (PTP-N2, IMAGE ID# 3872164, Incyte Genomics, CA); and fer (fms/fps related) protein kinase, testis specific 2 clone (Fert2, IMAGE ID# 4485050, Incyte Genomics, CA). The proteins were produced and immobilized on SA coated NPT-IPR plates, as described in Example 7. […]
A tyrosine phosphate substrate was prepared by enzymatically phosphorylating poly(Glu, Tyr). […] The phosphorylation in the product was determined by transferring serially diluted reaction mixture to a streptavidin-coated NPT IPR plate and assaying for phosphorylated-poly(Glu, Tyr) as described in previous examples (see, e.g., Example 7).
The phosphorylated poly(Glu, Tyr) was used as a substrate to measure the phosphatase activity of the purified and immobilized PTP-N2. […] Following this incubation 45 μl of this mixture was transferred to a streptavidin-coated NPT IPR plate and the solution analyzed for phospho-poly(Glu, Tyr) content as described above.

| normalized ECL signal, pY1068 spot [1] | HTS signal (pEY) | ECL signal [2] | ECL signal (phospho-pEY) | Molecule |
| --- | --- | --- | --- | --- |
| 3 | 523,662 | 443,933 |  | 3919253: IMAGE clone protein: BMX non-receptor tyrosine kinase (protein) MDTKSILEELLLKRSQQKKKMSPNNYKERLFVLTKTNLSYYEYDKMKRGSRKGSIEIKKIRCVEKVNLEEQTPVERQYPFQIVYKDGLLYVYASNEESRSQWLKALQKEIRGNPHLLVKYHSGFFVDGKFLCCQQSCKAAPGCTLWEAYANLHTAVNEEKHRVPTFPDRVLKIPRAVPVLKMDAPSSSTTLAQYDNESKKNYGSQPPSSSTSLAQYDSNSKKIYGSQPNFNMQYIPREDFPDWWQVRKLKSSSSSEDVASSNQKERNVNHTTSKISWEFPESSSSEEEENLDDYDWFAGNISRSQSEQLLRQKGKEGAFMVRNSSQVGMYTVSLFSKAVNDKKGTVKHYHVHTNAENKLYLAENYCFDSIPKLIHYHQHNSAGMITRLRHPVSTKANKVPDSVSLGNGIWELKREEITLLKELGSGQFGVVQLGKWKGQYDVAVKMIKEGSMSEDEFFQEAQTMMKLSHPKLVKFYGVCSKEYPIYIVTEYISNGCLLNYLRSHGKGLEPSQLLEMCYDVCEGMAFLESHQFIHRDLAARNCLVDRDLCVKVSDFGMTRYVLDDQYVSSVGTKFPVKWSAPEVFHYFKYSSKSDVWAFGILMWEVFSLGKQPYDLYDNSQVVLKVSQGHRLYRPHLASDTIYQIMYSCWHELPEKRPTFQQLLSSIEPLREKDKH |
|  |  |  | 70,574 | PTP-N2: protein tyrosine phosphatase, non-receptor type 2, IMAGE ID# 3872164 (protein, UniProt P17706 1-415, looked up) Tyrosine-protein phosphatase …: MPTTIEREFEELDTQRRWQPLYLEIRNESHDYPHRVAKFPENRNRNRYRDVSPYDHSRVKLQNAENDYINASLVDIEEAQRSYILTQGPLPNTCCHFWLMVWQQKTKAVVMLNRIVEKESVKCAQYWPTDDQEMLFKETGFSVKLLSEDVKSYYTVHLLQLENINSGETRTISHFHYTTWPDFGVPESPASFLNFLFKVRESGSLNPDHGPAVIHCSAGIGRSGTFSLVDTCLVLMEKGDDINIKQVLLNMRKYRMGLIQTPDQLRFSYMAIIEGAKCIKGDSSIQKRWKELSKEDLSPAFDHSPNKIMTEKYNGNRIGLEEEKLTGDRCTGLSSKMQDTMEENSESALRKRIREDRKATTAQKVQQMKQRLNENERKRKRWLYWQPILTKMGFMSVILVGAFVGWTLFFQQNAL |

Source: patent US7063946B2, “Methods, reagents, kits and apparatus for protein function analysis” (Meso Scale Technologies, LLC., priority 2001, dated 2006)
